This is an account of results in publication PMC9896810, “Crk proteins activate the Rap1 guanine nucleotide exchange factor C3G by segregated adaptor-dependent and -independent mechanisms” (Cell Communication and Signaling : CCS, 2023).

The target in assay [1] is T1, Src-phosphorylated C3G (pC3G), wild type (human, UniProt Q13905-1 4-1077, phosphotyrosines (phosphorylated in vitro by Src; sites not stated)).
T1 sequence (looked up): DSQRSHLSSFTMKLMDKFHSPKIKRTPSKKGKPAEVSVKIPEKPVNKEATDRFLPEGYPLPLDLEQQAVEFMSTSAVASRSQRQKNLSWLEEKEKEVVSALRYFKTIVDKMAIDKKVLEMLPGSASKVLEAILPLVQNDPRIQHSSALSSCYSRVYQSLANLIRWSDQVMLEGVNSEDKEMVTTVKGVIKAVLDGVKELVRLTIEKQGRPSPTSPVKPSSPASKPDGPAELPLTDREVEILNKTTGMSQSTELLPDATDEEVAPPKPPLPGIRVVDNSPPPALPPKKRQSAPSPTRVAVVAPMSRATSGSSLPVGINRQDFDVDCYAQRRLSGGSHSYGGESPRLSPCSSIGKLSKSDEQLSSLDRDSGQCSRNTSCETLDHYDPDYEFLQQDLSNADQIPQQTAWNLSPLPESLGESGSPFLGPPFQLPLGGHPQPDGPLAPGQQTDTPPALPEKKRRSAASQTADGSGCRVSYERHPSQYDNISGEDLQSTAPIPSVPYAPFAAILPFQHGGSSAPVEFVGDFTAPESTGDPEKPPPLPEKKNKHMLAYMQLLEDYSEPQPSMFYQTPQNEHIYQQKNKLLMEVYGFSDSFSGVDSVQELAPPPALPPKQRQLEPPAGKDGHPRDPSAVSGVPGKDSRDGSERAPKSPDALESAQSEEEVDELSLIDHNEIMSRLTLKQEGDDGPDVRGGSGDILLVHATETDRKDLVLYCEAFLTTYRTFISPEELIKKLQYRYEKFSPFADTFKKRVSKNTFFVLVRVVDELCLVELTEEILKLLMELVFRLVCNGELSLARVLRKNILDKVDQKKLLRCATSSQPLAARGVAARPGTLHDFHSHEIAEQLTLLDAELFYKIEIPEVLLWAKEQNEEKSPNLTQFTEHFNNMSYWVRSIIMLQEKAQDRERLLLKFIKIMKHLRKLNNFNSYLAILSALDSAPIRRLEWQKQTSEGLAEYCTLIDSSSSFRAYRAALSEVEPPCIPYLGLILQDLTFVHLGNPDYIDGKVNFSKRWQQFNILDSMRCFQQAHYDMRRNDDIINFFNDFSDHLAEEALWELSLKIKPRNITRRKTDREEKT
As to the kind of experiment: cell-based or functional assay.

The target of assay [2] is T2, C3G full-length wild type (human, isoform a, residues 4-1077) (human, UniProt Q13905-1 4-1077).
T2 sequence (looked up): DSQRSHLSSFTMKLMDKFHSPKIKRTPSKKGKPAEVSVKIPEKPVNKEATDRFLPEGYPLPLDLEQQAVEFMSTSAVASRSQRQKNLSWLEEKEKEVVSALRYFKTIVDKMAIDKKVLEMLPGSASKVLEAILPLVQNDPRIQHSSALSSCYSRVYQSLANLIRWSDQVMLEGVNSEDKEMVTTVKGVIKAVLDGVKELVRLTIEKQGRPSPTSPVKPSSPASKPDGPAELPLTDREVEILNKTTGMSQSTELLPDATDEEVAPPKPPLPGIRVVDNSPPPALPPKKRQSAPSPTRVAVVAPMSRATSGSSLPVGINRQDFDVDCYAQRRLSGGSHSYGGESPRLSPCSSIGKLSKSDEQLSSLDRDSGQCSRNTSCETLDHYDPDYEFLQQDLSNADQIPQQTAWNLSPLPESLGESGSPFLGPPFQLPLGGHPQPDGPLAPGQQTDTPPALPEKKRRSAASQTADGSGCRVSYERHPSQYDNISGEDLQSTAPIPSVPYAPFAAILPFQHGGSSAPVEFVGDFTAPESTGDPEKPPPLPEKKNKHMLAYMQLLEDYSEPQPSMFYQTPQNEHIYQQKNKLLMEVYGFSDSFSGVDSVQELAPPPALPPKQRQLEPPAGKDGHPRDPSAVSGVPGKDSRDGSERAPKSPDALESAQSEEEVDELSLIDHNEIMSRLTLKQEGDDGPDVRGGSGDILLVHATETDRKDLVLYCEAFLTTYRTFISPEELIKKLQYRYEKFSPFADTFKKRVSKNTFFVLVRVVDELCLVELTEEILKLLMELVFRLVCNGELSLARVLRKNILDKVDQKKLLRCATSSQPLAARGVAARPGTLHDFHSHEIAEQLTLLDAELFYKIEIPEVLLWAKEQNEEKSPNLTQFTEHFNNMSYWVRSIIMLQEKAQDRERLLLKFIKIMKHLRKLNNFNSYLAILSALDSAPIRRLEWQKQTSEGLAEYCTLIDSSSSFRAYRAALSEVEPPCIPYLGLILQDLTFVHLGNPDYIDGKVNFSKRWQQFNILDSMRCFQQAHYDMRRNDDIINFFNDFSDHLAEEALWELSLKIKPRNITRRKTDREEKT
In words: cell-based or functional assay.

For assay [3], the target named is T1, Src-phosphorylated C3G (pC3G), wild type. As to the kind of experiment: ITC; full-length C3G or pC3G in the cell titrated with CrkL, CrkL fragments, CrkL-W160S or CrkII; 25 °C; 300 mM NaCl, pH 7.5; parameters in Table S11. The note with it: both partners purified. (In ITC the heat of successive injections is recorded.)
Assay [4] concerns the target T2, C3G full-length wild type (human, …). As to the kind of experiment: AUC; sedimentation velocity of C3G with increasing CrkL; 20 mM Tris-HCl, 300 mM NaCl, pH 7.5, 20 °C, 48,000 rpm; isotherms fitted with three symmetric sites (Gilbert-Jenkins), microscopic kd. Particulars: both partners purified.
Assay [5] has the same target. As to the kind of experiment: ITC; same three titrations of C3G with CrkL, global fit in SEDPHAT, three symmetric binding sites, microscopic kd. The note with it: both partners purified.
For assay [6] the target is unchanged. As to the kind of experiment: ITC; C3G in the cell titrated with CrkL; 25 °C; 300 mM NaCl, pH 7.5 (Tris-HCl or Na-phosphate); three titrations fitted one by one, independent-site model (MicroCal Origin). The note with it: both partners purified.
In assay [7] the target is T1, Src-phosphorylated C3G (pC3G), wild type. In words: cell-based or functional assay. This is another data set of the same source.
Assay [8] has the same target. As to the kind of experiment: pull-down; 30 µg GST-CrkL (full-length or SH3N) with 30 µg C3G on glutathione-agarose; 20 mM Tris-HCl, 150 mM NaCl, pH 7.5, 0.01% BSA; 30 min, 4 °C; washes with 0.1% Triton X-100; coomassie or western blot. Particulars: both partners purified. For orientation: A western blot detects proteins with antibodies after separation by electrophoresis.

B1: CrkL, full-length (human) (natural protein, UniProt P46109 1-303, looked up)
chain: MSSARFDSSDRSAWYMGPVSRQEAQTRLQGQRHGMFLVRDSSTCPGDYVLSVSENSRVSHYIINSLPNRRFKIGDQEFDHLPALLEFYKIHYLDTTTLIEPAPRYPSPPMGSVSAPNLPTAEDNLEYVRTLYDFPGNDAEDLPFKKGEILVIIEKPEEQWWSARNKDGRVGMIPVPYVEKLVRSSPHGKHGNRNSNSYGIPEPAHAYAQPQTTTPLPAVSGSPGAAITPLPSTQNGPVFAKAIQKRVPCAYDKTALALEVGDIVKVTRMNINGQWEGEVNGRKGLFPFTHVKIFDPQNPDENE
notes: Monomer by sedimentation velocity and DLS (theoretical mass 33.7 kDa); Purification 'in a similar manner' as C3G would include TEV cleavage of the tag; also called Crk-like protein; wild type CrkL; source: E. coli BL21 (DE3), purified (His-tagged, purified in a similar manner as C3G)
A word on the Kd: it is the constant that tells how readily two partners part at equilibrium. A higher Kd goes with lower affinity. In general, koff refers to the first-order rate constant of dissociation. As to B1, in assay [1], the “AC50 of the dose-response activation of the GEF activity of pC3G (0.2 µM) on Rap1b:mant-dGDP” value amounted to 1.7 µM and the “kmax of the dose-response activation of the GEF activity of pC3G (0.2 µM) on Rap1b:mant-dGDP” value was 0.0342 s^-1 µM^-1. Further, in assay [2], the “AC50 of the dose-response activation of the GEF activity of C3G (1 µM) on Rap1b:mant-dGDP” value turned out to be 22400 nM and the “kmax of the dose-response activation of the GEF activity of C3G (1 µM) on Rap1b:mant-dGDP” value was determined as 13400 M⁻¹ s⁻¹. The molecule also registered a Kd in assay [3] of 1300 nM. Further, in assay [4], the affinity, expressed as Kd, was 1400 nM and the koff was more than 0.001 s⁻¹. In assay [5], this molecule yielded an equilibrium dissociation constant (Kd) of 2300 nM. Further, in assay [6], the Kd lay within 2800 to 3600 nM and the “stoichiometry N” value was ~3 molecules of CrkL per molecule of C3G. In addition, in assay [7], the “GEF activity of pC3G (0.2 µM) on Rap1b:mant-dGDP with 5 µM CrkL, fold over pC3G alone” value was approximately 9 fold.

B2: GST-CrkL R39K (natural protein, human, UniProt P46109 1-303, looked up)
chain: MSSARFDSSDRSAWYMGPVSRQEAQTRLQGQRHGMFLVKDSSTCPGDYVLSVSENSRVSHYIINSLPNRRFKIGDQEFDHLPALLEFYKIHYLDTTTLIEPAPRYPSPPMGSVSAPNLPTAEDNLEYVRTLYDFPGNDAEDLPFKKGEILVIIEKPEEQWWSARNKDGRVGMIPVPYVEKLVRSSPHGKHGNRNSNSYGIPEPAHAYAQPQTTTPLPAVSGSPGAAITPLPSTQNGPVFAKAIQKRVPCAYDKTALALEVGDIVKVTRMNINGQWEGEVNGRKGLFPFTHVKIFDPQNPDENE
notes: human CrkL, full-length, R39K; the results print 'R93K alone', the methods and the sentence before print R39K; also called R93K; source: E. coli BL21 (DE3), purified GST fusion
Consider B2, for which the binding result in assay [8] is on record as “binds”.
